# Measurements from US20250326864A1 (PARADOX IMMUNOTHERAPEUTICS, published 2025).
# T1: islet amyloid polypeptide (IAPP) amyloid in pancreatic tissue (human, UniProt P10997 34-70)
# T1 construct: Pathological control tissue in immunohistochemistry; also called IAPP amyloid pancreatic tissue
# T1 chain (looked up): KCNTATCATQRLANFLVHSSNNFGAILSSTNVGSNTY
# How the values were obtained:
# [1] = biological target: T1, islet amyloid polypeptide (IAPP) …; test: immunohistochemistry on patient tissue
# [2] = biological target: transthyretin (ATTR) amyloid in cardiac tissue (human, UniProt P02766 21-147); test: immunohistochemistry on patient tissue
# [3] = biological target: T2, misfolded/unfolded Wil λ light chain (human); test: microscale thermophoresis, labeled antibody
# T2 construct: mature; Soluble misfolded form made from native Wil; Biotinylated in the capture ELISA; also called misfolded Wil; Wil (misfolded)
# Protocol: (§1) FIGS. 7A and 7B are line graphs illustrating the results of binding of misfolded (FIG. 7A) or amyloid (FIG. 7B) Wil to muLX-97 measured by MST (microscale thermophoresis).
# (§2) Next, the binding affinity of muLX-97 to amyloid forms of λ light chains was determined. A true affinity to aggregates could not be measured using previously described methods where either the antibody or target is immobilized, so microscale thermophoresis (MST) was used. In this method a small spot in a capillary containing fluorescently labeled antibody in the presence or absence of target is irradiated with an infrared laser. The local heating causes migration of protein out of the heated spot and the rate of migration change (due to the antibody binding to a ligand) can be used to measure the affinity. Using the NanoTemper Monolith, binding of muLX-97 to misfolded and amyloid forms of Wil was quantified, with results shown in FIG. 7.
# [4] = biological target: T3, aggregated/amyloid Wil λ light chain (human); test: microscale thermophoresis, labeled antibody
# T3 construct: mature; Aggregate of many chains; Conjugated to pHrodo in the phagocytosis assay; also called Wil amyloid; amyloid/aggregated Wil
# Protocol: as §1, §2
# [5] = biological target: T2, misfolded/unfolded Wil λ light chain; test: microscale thermophoresis, labeled antibody; remark: listed apart in the source
# Protocol: as §1, §2
# [6] = biological target: T2, misfolded/unfolded Wil λ light chain; test: capture ELISA, antibody captured by anti-mouse Fc, biotinylated Wil in solution
# Text: All the candidate mAbs detected both misfolded/unfolded and amyloid/aggregated Wil. […] It was suspected that the Western blotting and indirect ELISA methods, which immobilizes the ‘native’ Wil protein to a surface, can lead to false-positive binding to the native protein by inducing some degree of misfolding, which would not be detected by the clones that bound weakly (clones 3-5). As such, a capture format ELISA was used to interrogate the binding behavior of clones 1 and 2. In this format, a goat anti-mouse Fc capture antibody was coated into the ELISA wells, and clones 1 or 2 are captured by the antibody with their Fabs aligned to the appropriate orientation. Then, native, or misfolded forms of biotinylated Wil is added to these wells and binding is measured by streptavidin. […] Based on the above data, clone 1 was selected as the lead candidate for subsequent characterization (henceforth referred to as muLX-97).
# [7] = biological target: T4, misfolded FOR102 λ light chain (human); test: bio-layer interferometry
# T4 construct: also called FOR102 (misfolded)
# Protocol: (§3) FIGS. 6A-6F are bio-layer interferometry sensorgrams of binding interactions between clone 1 (muLX-97) to misfolded (FIGS. 6A, 6B, 6C) and native (FIGS. 6D, 6E, 6F) conformations of Wil (FIGS. 6A, 6D), H3 (FIGS. 6B, 6E), and FOR102 (FIGS. 6C, 6F) lambda light chain variants. Binding of muLX-97 with its misfolded Wil at a range of target concentrations was measured by changes in wavelength (nm) over 720 seconds (120 s association, 600 s dissociation). Association and dissociation curves were fit using Octet Systems Software to determine KD.
# (§4) The binding affinity of muLX-97 to multiple λ light chain variants in misfolded and native conformations was then measured. In addition to Wil, two light chain variants sequenced from cardiac amyloid deposits in light chain amyloidosis patients were selected. See Oberti L et al. Concurrent structural and biophysical traits link with immunoglobulin light chains amyloid propensity. Sci Rep. 2017 Dec. 1; 7(1):16809 and Baur J et al. Identification of AL proteins from 10λ-AL amyloidosis patients by mass spectrometry extracted from abdominal fat and heart tissue. Amyloid. 2023 March; 30(1) 27-37. […] In native conformations of all variants, only weak binding (limited BLI signal, at very high concentration of 1000 nM) was observed. This limited association may be due to the presence of small amounts of misfolded Wil contaminating the ‘native’ sample.
# [8] = biological target: T5, misfolded H3 λ light chain (human); test: bio-layer interferometry
# T5 construct: also called H3 (misfolded)
# Protocol: as §3, §4
# [9] = biological target: T2, misfolded/unfolded Wil λ light chain; test: bio-layer interferometry
# Protocol: as §3, §4
# [10] = biological target: T3, aggregated/amyloid Wil λ light chain; test: cell-based or functional assay
binder,measurement,setting,value
"muLX-97 (clone 1) (antibody, V domains shown, Antibody fluorescently labeled in the MST assay; dye and site not stated., Murine monoclonal antibody from a hybridoma, purified from mouse ascites fluid; Fluorescently labeled in the MST assay) VH: DVKLVESGGGLVKLGGSLKLSCAASGFTFSSYYMSWVRQTPEKRLELVAAINSNGGNTYYPDTVKGRFTISRDNAKNTLYLQMSSLKSEDTALYYCARLPFDYWGQGTTLTVSS VL: not shown",binding result,[1],no binding
same,binding result,[2],no binding
same,Kd,[3],61 nM
same,Kd,[4],87 nM
same,Kd,[5],61.9 nM
same,Kd,[6],69 nM
same,Kd,[7],65 nM
same,Kd,[8],317 nM
same,Kd,[9],59 nM
same,"EC50 of phagocytic uptake of pHrodo-labeled amyloid Wil (% pHrodo-positive cells), J774.1 cells",[10],~7 nM
same,"EC50 of phagocytic uptake of pHrodo-labeled amyloid Wil (% pHrodo-positive cells), RAW 264.7 cells",[10],~20 nM
